We go through one molecule from patent US20240050559A1 (ICOSAVAX, published 2024).

The test addresses T1, compA-01.
T1 chain: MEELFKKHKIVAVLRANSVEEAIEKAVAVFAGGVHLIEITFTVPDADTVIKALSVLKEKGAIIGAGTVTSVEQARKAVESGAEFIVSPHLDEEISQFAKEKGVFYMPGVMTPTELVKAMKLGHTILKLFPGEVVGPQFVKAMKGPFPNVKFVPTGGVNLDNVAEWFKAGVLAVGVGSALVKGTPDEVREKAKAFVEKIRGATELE
The test can be described thus: particle assembly of purified compB-01 with compA-01.

B1: compB-01 (I53-50B sequence) (designed binder)
chain: MNQHSHKDHETVRIAVVRARWHAEIVDACVSAFEAAMRDIGGDRFAVDVFDVPGAYEIPLHARTLAETGRYGAVLGTAFVVNGGIYRHEFVASAVINGMMNVQLNTGVPVLSAVLTPHNYDKSKAHTLLFLALFAVKGMEAARACVEILAAREKIAA
notes: Designed pentameric component B of the two-component I53-50 icosahedral particle; also called I53-50B compB-01; bompB-01
Turning to B1, the binding result is on record as “binds”.
